Laboratory results taken from paper PMC7999107.

Legend:
Conditions in all cases: reference: wild type mice; sites S89
[1] = biological target: 14-3-3 epsilon (14-3-3ε) (UniProt P62259); test: anti-14-3-3ε IP, p300 immunoblot
[2] = biological target: β-catenin (UniProt Q02248); test: anti-p300 IP, β-catenin immunoblot, nuclear extract
[3] = biological target: 14-3-3 epsilon (14-3-3ε) (UniProt P62259); test: anti-p300 IP, 14-3-3ε immunoblot

binding against the reference [1]: weaker
binding against the reference [2]: weaker
binding against the reference [3]: weaker
Substance: p300 (from UniProt B2RWS6) p300 S89A knock-in mice
